In patent US20190071480A1 (Biogen, published 2019) one finds Kd data, which are given here for 16 molecules.

Numbering of substitutions follows the chain as printed.

The assay deals with T1, extracellular domain of activin receptor type IIB (ActRIIBecd), biotinylated (Homo sapiens (Human), UniProt Q13705 27-117, amino-biotinylated with amine-PEG3-Biotin).
T1 construct: immobilised on a streptavidin-coated sensor chip; also called biotinylated ActRIIBecd; extracellular domain of ActRIIB
T1 sequence: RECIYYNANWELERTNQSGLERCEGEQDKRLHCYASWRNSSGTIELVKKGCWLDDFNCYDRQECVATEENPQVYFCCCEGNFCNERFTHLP
Nature of the assay: Mean KD column of Table 5; method not restated (BIAcore as Example 5). As for the experimental part:
Biosensor experiments. In one embodiment, experiments were performed on a BIAcore™ T100/T200 instrument (Pharmacia Biosensor AB) in the multichannel mode (serial flow path involving flow cells 1+2+3+4). Flow rate was 10 μl/min; temperature was 25° C.; and data were recorded at 2.5 points/s. All four segments of a sensor chip CMS were coated with streptavidin (Sigma) to a density of 2000 pg/mm² (2000 resonance units) by the aminocoupling procedure. ActRIIBecd (10 mg) and amine-PEG3-Biotin (10 mg, Pierce, Rockford, Ill.) were dissolved in 200 μl H₂O and 10 mg NaCNBH₃ was added to prepare biotinylated ActRIIBecd. The reaction mixture was heated at 70° C. for 24 h, after that a further 10 mg NaCNBH₃ was added and the reaction was heated at 70° C. for another 24 h. After cooling to room temperature, the mixture was desalted with the spin column (3,000 molecular weight cut off (MWCO)). Biotinylated ActRIIBecd was collected, freeze-dried and used for streptavidin (SA) chip preparation. Amino-biotinylated ActRIIBecd was then immobilized independently on flow cells 2-4 for 10 minutes at a flow rate of 5 μL/min and a concentration of 20 μM in 10 mM sodium acetate, pH 4.0, at a density of 50-250 resonance units (RU). The stored polypeptides were dissolved in glycine buffer (2.5 g of glycine, 0.5 g of sucrose, 370 mg of L-glutamate, 10 mg of sodium chloride, and 10 mg of Tween 80 in 100 mL water, pH 4.5) to prepare 10 mg/mL solution and then diluted with previous glycine buffer to prepare analytes with various concentration. Sensograms were recorded during flow of the analyte (the ActRIIBecd-associated polypeptides (i.e., domains) as previously described) first through flow cell 1 (control) then through flow cell 2 (biotinylated ActRIIBecd). The sensogram obtained for flow cell 1 was subtracted from the sensogram obtained for flow cell 2. The sensograms obtained at 1.11, 3.33, 10, 30, and 90 nM analyte were evaluated for equilibrium binding, association rate, and dissociation rate by using the programs supplied with the instrument (BIA evaluation 2.1; Software Handbook. 1995; Pharmacia Biosensor AB).
(In general: In SPR one partner is held on a chip, and binding of the other changes the refractive index at the surface.)

B1: SEQ ID NO: 348, cysteine pairs C88-C92^a (designed binder)
chain: GQAKRKGYKRLKSSCKRHPLYNSKIPKACCVPTELSAISMLYLDENEKVVLKNYQDMVVEGCGCRVDFSDVGWNDWIVAPPGYHAFYCHGECPFPLADHLNSTNHAIVQTLVNSV
modifications: disulfides C88-C92 (intra)
With B1, the dissociation constant (Kd) was 4.51 nM.

B2: SEQ ID NO: 308, cysteine pairs C88-C92^a (designed binder)
chain: NSKDPKACCVPTELSAPSPLYLDENEKPVLKNYQDMVVHGCGCRGQAKRKGYKRLKSSCKRHPLYVDFKDVGWNDHAVAPPGYHAFYCHGECPFPLADHLNSDNHAIVQTKVNSV
modifications: disulfides C88-C92 (intra)
As to B2, the Kd was found to be 7.8 nM.

B3: SEQ ID NO: 308, cysteine pairs C8-C43^a, C9-C41^a, C88-C92^a (designed binder)
chain: B2 chain
modifications: disulfides C8-C43 (intra), C9-C41 (intra), C88-C92 (intra)
B3 gave a Kd of 10.9 nM.

B4: SEQ ID NO: 324, cysteine pairs C44-C48^a (designed binder)
chain: AQAKHKQRKRLKSSCKRHPLYVDFKDVGWNDHAVAPPGYHAFYCHGECPFPLADHLNSDNHAIVQTKVNSVNSKIPKACCVPTELSAISMLYLDENEKVVLKNYQDMVVEGCGCR
modifications: disulfides C44-C48 (intra)
B4 yielded a Kd of 8.75 nM.

B5: SEQ ID NO: 260, cysteine pairs C44-C48^a (designed binder)
chain: B4 chain with K25S, H32W, A33I, D59T, K67L
modifications: disulfides C44-C48 (intra)
As to B5, the Kd was 8.04 nM.

B6: SEQ ID NO: 260, cysteine pairs C79-C114^a, C80-C112^a, C44-C48^a (designed binder)
chain: B4 chain with K25S, H32W, A33I, D59T, K67L
modifications: disulfides C79-C114 (intra), C80-C112 (intra), C44-C48 (intra)
B6 gave a Kd of 6.17 nM.

B7: SEQ ID NO: 292, cysteine pairs C44-C48^a (designed binder)
chain: B4 chain with A1G, H5R, Q7G, R8Y, I75D, I88P, M90P, V99P, E110H
modifications: disulfides C44-C48 (intra)
Regarding B7, the Kd amounted to 7.81 nM.

B8: SEQ ID NO: 260, cysteine pairs C15-C15^b, C79-C114^b, C80-C112^b, C44-C48^a (designed binder)
chain: B4 chain with K25S, H32W, A33I, D59T, K67L
modifications: disulfides C15-C15 (inter), C79-C114 (inter), C80-C112 (inter), C44-C48 (intra)
notes: homodimer by intermolecular disulfide
Molecule B8 displayed a Kd of 4.03 nM.

B9: SEQ ID NO: 260, cysteine pairs C15-C15^b, C80-C114^b, C79-C112^b, C44-C48^a (designed binder)
chain: B4 chain with K25S, H32W, A33I, D59T, K67L
modifications: disulfides C15-C15 (inter), C80-C114 (inter), C79-C112 (inter), C44-C48 (intra)
notes: as for B8
B9 gave a Kd of 4.04 nM. This Kd and that of the molecule before are within 1.5-fold of each other.

B10: SEQ ID NO: 260, cysteine pairs C79-C114^b, C80-C112^b, C44-C48^a (designed binder)
chain: B4 chain with K25S, H32W, A33I, D59T, K67L
modifications: disulfides C79-C114 (inter), C80-C112 (inter), C44-C48 (intra)
notes: as for B8
B10 had a Kd of 6.05 nM.

B11: SEQ ID NO: 268, cysteine pairs C23-C27^a (designed binder)
chain: VDFSDVGWNDWIVAPPGYHAFYCHGECPFPLADHLNSTNHAIVQTLVNSVAQAKHKQRKRLKSSCKRHPLYNSKIPKACCVPTELSAISMLYLDENEKVVLKNYQDMVVEGCGCR
modifications: disulfides C23-C27 (intra)
B11 came in with a Kd of 8.41 nM. This Kd and that of the molecule before are within 1.5-fold of each other.

B12: SEQ ID NO: 316, cysteine pairs C67-C71^a (designed binder)
chain: NSKDPKACCVPTELSAPSPLYLDENEKPVLKNYQDMVVHGCGCRVDFKDVGWNDHAVAPPGYHAFYCHGECPFPLADHLNSDNHAIVQTKVNSVGQAKRKGYKRLKSSCKRHPLY
modifications: disulfides C67-C71 (intra)
B12: the Kd is 4.67 nM. Against the preceding molecule, the Kd is about 1.8-fold lower.

B13: SEQ ID NO: 284, cysteine pairs C88-C92^a (designed binder)
chain: NSKIPKACCVPTELSAISMLYLDENEKVVLKNYQDMVVEGCGCRAQAKHKQRKRLKSSCKRHPLYVDFSDVGWNDWIVAPPGYHAFYCHGECPFPLADHLNSTNHAIVQTLVNSV
modifications: disulfides C88-C92 (intra)
As for B13, the Kd was found to be 8.14 nM.

B14: SEQ ID NO: 276, cysteine pairs C67-C71^a (designed binder)
chain: NSKIPKACCVPTELSAISMLYLDENEKVVLKNYQDMVVEGCGCRVDFSDVGWNDWIVAPPGYHAFYCHGECPFPLADHLNSTNHAIVQTLVNSVAQAKHKQRKRLKSSCKRHPLY
modifications: disulfides C67-C71 (intra)
For the molecule B14, the Kd was found to be 7.41 nM.

B15: SEQ ID NO: 340, cysteine pairs C88-C92^a (designed binder)
chain: AQAKHKQRKRLKSSCKRHPLYNSKDPKACCVPTELSAPSPLYLDENEKPVLKNYQDMVVHGCGCRVDFKDVGWNDHAVAPPGYHAFYCHGECPFPLADHLNSDNHAIVQTKVNSV
modifications: disulfides C88-C92 (intra)
B15 showed a Kd of 5.64 nM.

B16: SEQ ID NO: 300, cysteine pairs C23-C27^a (designed binder)
chain: VDFKDVGWNDHAVAPPGYHAFYCHGECPFPLADHLNSDNHAIVQTKVNSVGQAKRKGYKRLKSSCKRHPLYNSKDPKACCVPTELSAPSPLYLDENEKPVLKNYQDMVVHGCGCR
modifications: disulfides C23-C27 (intra)
The molecule B16 registered a Kd of 8.92 nM.

One may read the Kd as the equilibrium constant for the complex coming apart. A high value points to a looser complex.
